Among the data in PMC11946224 are stoichiometry N values, retold here.

The target of experiment [1] is recombinant cylindracin (C-terminal cysteine-rich domain of cylindracin) (Cyclocybe cylindracea). Description: cross-linking; rCYL raised from 0.25 mg/mL (39 uM) to 2.0 mg/mL (312 uM) with BS(PEG)9 at 500 uM; SDS-PAGE, Coomassie staining.
Experiment [2] has the same target. The experiment is described as above. This is another data set of the same source.
Experiment [3] has the same target. Description: cross-linking; rCYL at 0.25 mg/mL (39 uM) with 0.005-5 mM BS(PEG)9 in 20 mM sodium phosphate pH 7.2, 150 mM NaCl, 25 C, 30 min; SDS-PAGE, Coomassie staining.

Consider “recombinant cylindracin (C-terminal cysteine-rich domain of cylindracin) (domain or fragment)”, for which the stoichiometry N (commonly a count of units in the complex or per binding partner) in experiment [1] worked out at 4; in experiment [2], 2; in experiment [3], 2.
